# ± gives the standard deviation of the averaged measurements.
# Tested on: ATP
# Assay: switch fluorescence ratio, 500 uM ATP over buffer (Cy3 cluster intensity, sum of 5 cycles each) (fold (ratio)); higher = stronger signal-on switching upon ATP binding; sequences stand for … in TCGTCGGCAGCGTCAGATGTGTATAAGAGACAGTTTTTTTTTTTTTTTTTTTTTTTTT…TC
# Conditions: aptamer strand: ATP DNA aptamer (quencher-CACCTGGGGGAGTATTGCGGAGGAAGG + anchor), 100 nM annealed; ATP concentration: 500 uM
# Method in brief: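 Clusters with intensities outside 100-1000 RFU were excluded. The remaining Cy3-labelled switching-strand clusters on a modified Illumina MiSeq flow-cell had been annealed to 100 nM quencher-labelled ATP aptamer and imaged in selection buffer, then after 15 min with 500 uM ATP at 22 °C, for five cycles separated by NaOH stripping and re-annealing. The fluorescence ratio, averaged per switch-domain sequence, is each cluster's summed target-cycle Cy3 intensity over its summed buffer-cycle Cy3 intensity.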
# 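Further: ATP exposure 15 min at 22 °C before imaging.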
row,Sequence,switch fluorescence ratio
1,TTTGTTTACT,0.99165 ± 0.00046
2,TTTGTTTCAA,0.982 ± 0.013
3,TTTGTTTCAT,1.04 ± 0.1
4,TTTGTTTCGT,1.03 ± 0.11
5,TTTGTTTGGG,0.998 ± 0.033
6,TTTGTTTTCG,1.02 ± 0.041
7,TTTGTTTTGC,0.971 ± 0.019
8,TTTGTTTTGG,1.03 ± 0.025
9,TTTTAAAAGG,0.99 ± 0.037
10,TTTTAAACCG,1.05 ± 0.17
11,TTTTAAACTT,1.09 ± 0.15
12,TTTTAACCTG,1.01 ± 0.046
13,TTTTAACGGG,0.998 ± 0.027
14,TTTTAACTTC,1 ± 0.014
15,TTTTAAGAGA,1.01 ± 0.017
16,TTTTAAGCTA,1.12 ± 0.2
17,TTTTAAGGG,1.02 ± 0.022
18,TTTTAAGTGA,1.02 ± 0.05
19,TTTTAATACC,1 ± 0.023
20,TTTTAATAGT,1.01 ± 0.018
21,TTTTAATCCC,1.07 ± 0.062
22,TTTTAATCGA,1.02 ± 0.043
23,TTTTAATGAG,0.9774 ± 0.00031
24,TTTTAATGTT,1 ± 0.046
25,TTTTAATTAG,1.01 ± 0.018

row,Sequence,switch fluorescence ratio
1,TTTTAATTCC,1.02 ± 0.038
2,TTTTAATTGG,1.01 ± 0.066
3,TTTTAATTTG,0.994 ± 0.04
4,TTTTACAAGA,0.996 ± 0.043
5,TTTTACACAT,1.025 ± 0.0057
6,TTTTACAGCA,1.04 ± 0.03
7,TTTTACAGTA,1.07 ± 0.022
8,TTTTACATTT,1 ± 0.057
9,TTTTACCCAG,1.11 ± 0.012
10,TTTTACCCGC,1.11 ± 0.078
11,TTTTACCCGG,1.04 ± 0.029
12,TTTTACGACA,1.15 ± 0.014
13,TTTTACGCCG,1.09 ± 0.041
14,TTTTACGCTT,1.04 ± 0.017
15,TTTTACGGTT,1.03 ± 0.069
16,TTTTACGTAG,1.09 ± 0.035
17,TTTTACTATT,0.996 ± 0.041
18,TTTTAGAAA,1.02 ± 0.07
19,TTTTAGAGGT,0.96 ± 0.033
20,TTTTAGCCAG,1.01 ± 0.032
21,TTTTAGGAGA,1.02 ± 0.026
22,TTTTAGGCCT,1.045 ± 0.0027
23,TTTTAGGCTC,1.03 ± 0.039
24,TTTTAGGGCG,0.976 ± 0.048
25,TTTTAGGTAC,1.021 ± 0.0019

row,Sequence,switch fluorescence ratio
1,TTTTAGGTTC,1.01 ± 0.018
2,TTTTAGTACA,1 ± 0.048
3,TTTTAGTATA,1.02 ± 0.045
4,TTTTAGTATG,1 ± 0.02
5,TTTTAGTGCT,1.006 ± 0.0065
6,TTTTAGTTGT,0.994 ± 0.032
7,TTTTATACCA,1.04 ± 0.039
8,TTTTATACGG,0.9874 ± 0.0087
9,TTTTATAGAC,1.04 ± 0.026
10,TTTTATCATG,0.9758 ± 0.0028
11,TTTTATGTTG,1.01 ± 0.04
12,TTTTATTATT,0.967 ± 0.01
13,TTTTATTCGT,1.01 ± 0.025
14,TTTTATTGCG,0.995 ± 0.011
15,TTTTCAAATA,1.01 ± 0.061
16,TTTTCAAATT,1.01 ± 0.028
17,TTTTCAATGA,0.994 ± 0.041
18,TTTTCAGCAA,2.59 ± 1
19,TTTTCAGGAG,1.03 ± 0.016
20,TTTTCATGAG,1.01 ± 0.012
21,TTTTCATTAT,1.046 ± 0.0066
22,TTTTCATTCA,1.023 ± 0.0072
23,TTTTCATTTT,1.05 ± 0.11
24,TTTTCCACGA,1.3 ± 0.35
25,TTTTCCAGTT,0.998 ± 0.029

row,Sequence,switch fluorescence ratio
1,TTTTCCGCCC,3.08 ± 2.9
2,TTTTCCGCTT,1.55 ± 0.69
3,TTTTCGAAAA,1.03 ± 0.075
4,TTTTCGATCT,1 ± 0.013
5,TTTTCGCCGA,1.03 ± 0.057
6,TTTTCGGCCC,1.01 ± 0.026
7,TTTTCGTGCA,1.03 ± 0.046
8,TTTTCTACAG,1 ± 0.022
9,TTTTCTCACG,1.12 ± 0.11
10,TTTTCTGTCC,1.03 ± 0.012
11,TTTTCTGTCG,1.06 ± 0.063
12,TTTTCTGTTT,0.996 ± 0.047
13,TTTTCTTAGA,0.977 ± 0.029
14,TTTTCTTAGT,0.974 ± 0.021
15,TTTTCTTATG,0.96 ± 0.013
16,TTTTCTTGGG,1.03 ± 0.071
17,TTTTCTTTT,1.02 ± 0.024
18,TTTTCTTTTC,1.09 ± 0.084
19,TTTTCTTTTG,1 ± 0.024
20,TTTTGAAAAG,1.01 ± 0.019
21,TTTTGAAATG,0.965 ± 0.017
22,TTTTGAACCA,1.05 ± 0.057
23,TTTTGAAGGG,1 ± 0.021
24,TTTTGACCGT,0.973 ± 0.037
25,TTTTGACGTG,0.991 ± 0.013

row,Sequence,switch fluorescence ratio
1,TTTTGACTTA,1.04 ± 0.034
2,TTTTGAGATG,0.999 ± 0.024
3,TTTTGAGCAT,1.07 ± 0.12
4,TTTTGAGCTG,1.02 ± 0.029
5,TTTTGAGGTC,0.986 ± 0.064
6,TTTTGATACT,1.0096 ± 0.00024
7,TTTTGATGG,0.995 ± 0.036
8,TTTTGATTAA,1.02 ± 0.041
9,TTTTGATTAG,1.006 ± 0.0015
10,TTTTGATTGT,1.01 ± 0.055
11,TTTTGCAATT,1.98 ± 1.3
12,TTTTGCACGG,1.04 ± 0.0077
13,TTTTGCGAAA,1.55 ± 0.9
14,TTTTGCGGGG,1.08 ± 0.15
15,TTTTGGAATT,1.04 ± 0.16
16,TTTTGGACCT,1.3 ± 0.0093
17,TTTTGGAGTA,1.02 ± 0.047
18,TTTTGGATCT,0.982 ± 0.023
19,TTTTGGATGT,0.984 ± 0.048
20,TTTTGGCGGG,0.983 ± 0.022
21,TTTTGGCGGT,0.971 ± 0.055
22,TTTTGGGGAC,0.988 ± 0.043
23,TTTTGGGGGA,0.999 ± 0.04
24,TTTTGGGGTC,1.02 ± 0.023
25,TTTTGGGTAC,0.995 ± 0.04

row,Sequence,switch fluorescence ratio
1,TTTTGGGTGC,1.08 ± 0.089
2,TTTTGGTAAA,1 ± 0.038
3,TTTTGGTAGG,1.02 ± 0.02
4,TTTTGGTCAT,0.962 ± 0.053
5,TTTTGGTCTC,0.985 ± 0.036
6,TTTTGGTGCG,0.986 ± 0.041
7,TTTTGGTTTA,1 ± 0.011
8,TTTTGTACAA,1.04 ± 0.059
9,TTTTGTACGG,1.01 ± 0.018
10,TTTTGTAGGT,0.973 ± 0.056
11,TTTTGTGAAT,0.9561 ± 0.0045
12,TTTTGTGGGC,1.01 ± 0.055
13,TTTTGTTACT,1.01 ± 0.026
14,TTTTGTTAGC,1.01 ± 0.03
15,TTTTGTTATA,0.9783 ± 0.0036
16,TTTTGTTGGT,1 ± 0.028
17,TTTTGTTGTC,0.984 ± 0.037
18,TTTTGTTTAG,0.992 ± 0.021
19,TTTTGTTTGG,1.02 ± 0.041
20,TTTTTAAAAT,1.08 ± 0.22
21,TTTTTAAACA,1.01 ± 0.068
22,TTTTTAAACG,0.995 ± 0.014
23,TTTTTAAATA,0.986 ± 0.023
24,TTTTTAAATC,1 ± 0.044
25,TTTTTAACAG,0.997 ± 0.021

row,Sequence,switch fluorescence ratio
1,TTTTTAAGCT,1.02 ± 0.019
2,TTTTTAATCA,0.987 ± 0.014
3,TTTTTAATGG,1.01 ± 0.034
4,TTTTTAATTT,0.993 ± 0.023
5,TTTTTACAGG,1.13 ± 0.16
6,TTTTTACGAG,0.988 ± 0.045
7,TTTTTACGTG,0.969 ± 0.035
8,TTTTTACTCG,0.9965 ± 0.005
9,TTTTTAGATT,1.02 ± 0.031
10,TTTTTAGCAT,1.04 ± 0.084
11,TTTTTAGCCC,1.02 ± 0.053
12,TTTTTAGGCA,1 ± 0.042
13,TTTTTAGGCG,0.978 ± 0.028
14,TTTTTAGTTA,0.981 ± 0.01
15,TTTTTAGTTC,0.98 ± 0.027
16,TTTTTATAAA,1.01 ± 0.039
17,TTTTTATAAC,1 ± 0.031
18,TTTTTATACG,0.984 ± 0.072
19,TTTTTATAGT,1.02 ± 0.022
20,TTTTTATCTT,1.03 ± 0.046
21,TTTTTATGGT,0.984 ± 0.027
22,TTTTTCAATG,0.979 ± 0.042
23,TTTTTCCATA,1 ± 0.022
24,TTTTTCCCAT,1.03 ± 0.014
25,TTTTTCCCCC,1.04 ± 0.05

row,Sequence,switch fluorescence ratio
1,TTTTTCCGGA,0.997 ± 0.048
2,TTTTTCCTAC,1 ± 0.016
3,TTTTTCGACC,1.01 ± 0.035
4,TTTTTCGG,0.996 ± 0.025
5,TTTTTCGGCT,0.985 ± 0.044
6,TTTTTCGGTA,1.05 ± 0.038
7,TTTTTCGGTT,0.998 ± 0.039
8,TTTTTCGTTG,0.997 ± 0.049
9,TTTTTCTAAA,0.9834 ± 0.0074
10,TTTTTCTCGG,0.992 ± 0.01
11,TTTTTCTTCT,1.31 ± 0.36
12,TTTTTGAAAG,0.996 ± 0.013
13,TTTTTGAAGG,0.992 ± 0.024
14,TTTTTGAATC,0.983 ± 0.017
15,TTTTTGAGAA,0.983 ± 0.033
16,TTTTTGATAT,1.05 ± 0.056
17,TTTTTGATTG,1.01 ± 0.014
18,TTTTTGCCGC,1.02 ± 0.012
19,TTTTTGCCTT,1 ± 0.024
20,TTTTTGCTGA,1.01 ± 0.032
21,TTTTTGCTTG,0.98 ± 0.029
22,TTTTTGGACG,0.969 ± 0.081
23,TTTTTGGATC,1 ± 0.025
24,TTTTTGGCGT,1.02 ± 0.033
25,TTTTTGGGAG,1.01 ± 0.024

# From the supplement of paper PMC10126150
